# Assay results as given in patent US20240024490.
# Assays:
# BRD4 = BRD4 (UniProt O60885)
# BTK = BTK (UniProt Q06187)
# ABL = ABL (UniProt P00519)
# Sequence of ABL (P00519 whole entry): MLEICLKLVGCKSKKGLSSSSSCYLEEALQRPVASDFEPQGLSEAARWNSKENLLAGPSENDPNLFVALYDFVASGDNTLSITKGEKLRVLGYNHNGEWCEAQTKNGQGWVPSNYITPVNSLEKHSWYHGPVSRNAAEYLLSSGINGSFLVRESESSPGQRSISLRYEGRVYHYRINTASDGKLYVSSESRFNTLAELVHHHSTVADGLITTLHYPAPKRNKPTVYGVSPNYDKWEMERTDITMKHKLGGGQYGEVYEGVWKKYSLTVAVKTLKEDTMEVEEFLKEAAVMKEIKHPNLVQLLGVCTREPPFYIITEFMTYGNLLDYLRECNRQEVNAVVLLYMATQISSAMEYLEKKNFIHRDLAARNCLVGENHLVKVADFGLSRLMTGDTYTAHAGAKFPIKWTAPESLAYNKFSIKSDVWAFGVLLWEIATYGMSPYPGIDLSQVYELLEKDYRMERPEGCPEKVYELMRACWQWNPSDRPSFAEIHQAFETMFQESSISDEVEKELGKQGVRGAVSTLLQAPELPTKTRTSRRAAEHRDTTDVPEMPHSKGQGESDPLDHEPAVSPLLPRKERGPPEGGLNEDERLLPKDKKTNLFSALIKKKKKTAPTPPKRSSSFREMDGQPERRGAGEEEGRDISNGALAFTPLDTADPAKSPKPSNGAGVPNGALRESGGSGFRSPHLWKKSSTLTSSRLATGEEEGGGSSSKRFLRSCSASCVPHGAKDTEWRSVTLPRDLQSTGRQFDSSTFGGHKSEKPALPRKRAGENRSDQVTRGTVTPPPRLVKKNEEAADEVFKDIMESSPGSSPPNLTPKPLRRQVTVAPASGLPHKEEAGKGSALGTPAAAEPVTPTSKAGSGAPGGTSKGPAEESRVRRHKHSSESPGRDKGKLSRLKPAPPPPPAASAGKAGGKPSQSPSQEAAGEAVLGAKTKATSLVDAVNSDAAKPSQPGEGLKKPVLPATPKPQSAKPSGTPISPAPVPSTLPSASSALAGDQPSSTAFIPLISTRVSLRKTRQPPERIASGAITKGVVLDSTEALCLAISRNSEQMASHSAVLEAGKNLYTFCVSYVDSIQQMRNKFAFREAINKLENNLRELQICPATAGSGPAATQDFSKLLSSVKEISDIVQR
# Sequence of BTK (Q06187 whole entry): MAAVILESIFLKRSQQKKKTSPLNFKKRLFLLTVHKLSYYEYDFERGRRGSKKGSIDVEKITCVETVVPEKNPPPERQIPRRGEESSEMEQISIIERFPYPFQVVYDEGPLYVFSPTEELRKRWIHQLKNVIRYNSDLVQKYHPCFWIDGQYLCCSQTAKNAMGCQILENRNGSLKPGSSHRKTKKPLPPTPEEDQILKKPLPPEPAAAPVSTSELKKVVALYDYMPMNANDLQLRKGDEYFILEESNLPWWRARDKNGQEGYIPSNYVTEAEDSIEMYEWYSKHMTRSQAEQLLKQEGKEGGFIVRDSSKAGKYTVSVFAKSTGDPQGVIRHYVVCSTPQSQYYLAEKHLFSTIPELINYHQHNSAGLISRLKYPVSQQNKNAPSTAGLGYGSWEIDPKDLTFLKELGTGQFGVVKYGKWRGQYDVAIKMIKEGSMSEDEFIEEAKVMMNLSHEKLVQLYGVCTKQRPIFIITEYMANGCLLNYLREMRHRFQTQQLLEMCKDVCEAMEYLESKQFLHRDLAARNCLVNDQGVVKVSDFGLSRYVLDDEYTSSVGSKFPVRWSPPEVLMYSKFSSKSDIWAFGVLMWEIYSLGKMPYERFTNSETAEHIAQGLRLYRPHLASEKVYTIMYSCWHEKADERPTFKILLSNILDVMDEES
substance,measurement,setting,value
PKC,"phosphorylation of BRD4 by PKC in vitro, with PHICS4",BRD4,BRD4 phosphorylation was detected in the presence of PHICS4
same,"phosphorylation of BRD4 by PKC in vitro, with the chimeric molecule made from (R)-JQ1",BRD4,"absence of phosphorylation when a chimeric molecule generated from the inactive enantiomer of (S)-JQ1 [i.e., (R)-JQ1] was used"
same,"phosphorylation of BTK by PKC in vitro, with PHICS6 (PKC-motif antibody)",BTK,the degree of phosphorylation was higher in the presence of PHICS6
same,"phosphorylation of BTK by PKC in vitro, with the inactive analog iPHICS6",BTK,the inactive PHICS analogs lowered phosphorylation induction
same,"phosphorylation of BTK by PKC in vitro, without PHICS (PKC-motif antibody)",BTK,some phosphorylation of BTK by PKC was observed in the absence of PHICS (quantified using PKC-motif antibody)
same,"phosphorylation of ABL by PKC in vitro, with PHICS5",ABL,"An ABL-targeting PHICS5 formed using dihydropyrazole core also induced phosphorylation of ABL, compare to DMSO or activator VS1012 treated controls"
same,"phosphorylation of ABL by PKC in vitro, with VS558",ABL,"bifunctional molecule VS558 based on a known inhibitor dasatinib, that binds to a different pocket of ABL kinase [16], also induced its phosphorylation by PKC in vitro"
